Data from article PMC3424314 (Journal of immunology (Baltimore, Md. : 1950), 2012).

Biological target: CD40 receptor on a stable CHO cell line (Homo sapiens, UniProt P25942)
Assay: flow cytometry on cells

Sequence of CD40 receptor on a stable CHO cell line (P25942 21-277): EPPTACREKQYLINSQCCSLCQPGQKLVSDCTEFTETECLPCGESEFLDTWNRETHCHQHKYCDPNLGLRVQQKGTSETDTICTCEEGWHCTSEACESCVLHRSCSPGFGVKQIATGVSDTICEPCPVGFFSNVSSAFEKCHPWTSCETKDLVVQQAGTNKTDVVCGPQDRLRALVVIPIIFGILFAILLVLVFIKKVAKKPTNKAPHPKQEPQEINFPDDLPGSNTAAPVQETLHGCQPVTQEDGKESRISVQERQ

B1: anti-CD40 rAb with H chain C-terminal dockerin (antibody, V domains shown)
VH: EVKLVESGGGLVQPGGSLKLSCATSGFTFSDYYMYWVRQTPEKRLEWVAYINSGGGSTYYPDTVKGRFTISRDNAKNTLYLQMSRLKSEDTAMYYCARRGLPFHAMDYWGQGTSVTVSS
VL: DIQMTQTTSSLSASLGDRVTISCSASQGISNYLNWYQQKPDGTVKLLIYYTSILHSGVPSRFSGSGSGTDYSLTIGNLEPEDIATYYCQQFNKLPPTFGGGTKLEIK
B1: binds.

B2: recombinant anti-CD40 rAb (antibody, V domains shown)
VH: EVKLVESGGGLVQPGGSLKLSCATSGFTFSDYYMYWVRQTPEKRLEWVAYINSGGGSTYYPDTVKGRFTISRDNAKNTLYLQMSRLKSEDTAMYYCARRGLPFHAMDYWGQGTSVTVSS
VL: DIQMTQTTSSLSASLGDRVTISCSASQGISNYLNWYQQKPDGTVKLLIYYTSILHSGVPSRFSGSGSGTDYSLTIGNLEPEDIATYYCQQFNKLPPTFGGGTKLEIK
B2: binds.
